In the DeepSol protein solubility set:

Assay: soluble on expression in E. coli; label from the status in PepcDB or PDB records

Row | Sequence | soluble on expression in E. coli
1 | MSLQYQVVPVTAFAQNCSIVWCDETMEGIVVDPGGDVKQLAMLIAELGVKVTQLVLTHGHLDHVGGTQSLAQALGGTRVVGPHKADNFWLQGLEGQSKMFGFPLTEAFEPDEWLDDGDVIHFGQQTLQVIHTPGHTPGHVVLFSEAARLAFVGDVLFNGSIGRTDFPQGDFNTLIASIKNKLWPLGSDVTFIPGHGPQSTFGRERASNPFVADEMPLY | not soluble
2 | MSLRAAKRHGISIIVAEKNLILGLDVGNTVIKAVLFDTAGRQIAQHAIDGHSTYPQPGYVERDLEELWRNGCEAIRQLLVKSAVDPNSIAGVGCAGHGNGLYLLDKEQQPLLGIQSLDSRAADMAAELDRKSGDLLQARCLQRPWPAQTPTLLAWVKRHALDLYAQTSTVLFCKDFINFRLTGCLANDISDLSGAGLLALPEVLLDRELLSLYGLEDAFAFFPRCVESADIVGQVTREAAGLTGLSEGTPVIGGFFDVVSSAMGSGVINPGEASVIAGTWSINQVFADKPVVSPDVFMVTTFGRDRYVNIESSATSAANLEWYVHRVRADHGDHAFERCNELVGSVTPRADDPFFHPFIFGSRLGAEFRGGFYGLAGWHGEGHMVRALFEGVCFEHRRHIGVLREAGLPVESAVMSGGGSRSQHWPQIMADVLEIPLRVAEARETGALGAALGAAVATGLYPNYEEAVAAMTRVQNSYQPDTARVSHYRRRYGLYQELTGQLRSFWSALRLPQEGHHHHHH | not soluble
3 | MSLRFTTISKAYDNVTTDDTQYRILIVEDDRSQALFAQSVLQGAGIHAQIEMSASEVLKVIEDYRPDLILMDLNMPELDGISLTTLIRQQPNQLLLPIVFLSGDTDPEKQFEVLDSGADDFLTKPIQPRHLIAAVSNRMHRLRQQQQNAQQADTQINIQKTSITELQTRIHIVEQLEVALSSGAQGALFFIEVSSALNLRTRYGYTAFERLMNQVEYHLAQEAHPYSLARISDHSFLLLAIDLAATEHQALATHLREHLATLPLPIQDDELVHLRSAIGYAPLNQGFKNADDAVECTESATLEARQNNEGIYAYVPLRTPENTGHLALLDGQLELAYQPIVEVAGSDTAQYQVLLRLRKADGNLLSAGLVIPAAEAAGRIMELDQQVIEQALDILKLHQDTNQQLRLFVSQSVRTLIHEGFSDWIIKNLRERNVNGTGLVIDLRLQDAVIHAIPLKQLCKELLKHNVKFCLSQFESNSEATVLFSELPLNFVRLSQHFGDAHNHPERQKELPLLIEQAHEHNLHVIGQCIEDAQAATFMWMNGVDLIQGNLFQNVSKDLNFNFHDMVLEGHHHHHH | soluble
4 | MSLRHFFGAFLLGMATLTVMPTEQVLAGTLTGQPPIVIGHRGASGYRPEHTLAAYELAIQMGADYIEPDLVATKDGVLVARHENALAILNADGTLNLTDTSTDVFERLQFADRKTTKVIDGRSITGWFTEDFTLAELKTLRAIERIPGIRPQNTQYDRQFEIPTLQEVIDLAKAQSAALGRTIGIYPETKHPTYFDSIGLSMEEILVSVLNANGYVDESAPVYIQSFEVSNLKDLNRLTNVSLVQLISPSGRPYDFVVNGDSRLYRDLITPLGLAEIATYANGIGANKNLIIPRDGRGNLLSPTTLVDDAHAAGLIVHAWTFRNEDVFLPTNLQGNPQEEYKRFYQTGIDGLFSDNPDTAFAVRSTLVPEPGTIFGLGFVPLLGWLFRRRKEGHHHHHH | not soluble
5 | MSLRITTLEELLEALDELFDDGSDLTRRGAQDPWERVFSQPGHPLASDLPDACLVDWTRQGLLPSGDGLTALDLGCGLGRNARWLARQGYAVTGLDLSPYAVGQARERTPGPDIRYLEGDVLRDPIPGGPFDVVYDSGCFHHLPPHRRLSYLHTLGQVLRPGGWFGLCTFAWGRMGSAKSDLELLRQGQLEGGVGYTLDDLREMFGGLDFVTGSLLSELEPASEPVFQMDFLQAALFRREGHHHHHH | soluble
6 | MSLRLALRQVDGAALALRRCGEAWAGQDVRIAYPPSHGCWLKVAGADGSWQGWLQPRAWLRHMAPELASLASAAGMDDRLSELIAACEAPLSWPVADMPLGRIVAGERREGSQLPQRPMLRMDTPQGEVWLEKAPAPAEAARDRVPGWLPMPLRFLLGDSMVSPSLLRRAKAGDVLLISRPAQTVSCNGRAIGTYQWTEEGIIMEWQNEMAAAAETRPLADLDRLPVRLEFVLQQSEVTLDELRELCRSNVLPLSADAERRVELRANGALLGRGELVQLDGRLGVEVAQWLGGSGDVEEGHHHHHH | soluble
7 | MSLRLKILIKLSGAGMSADSSEPFSNQFLETVIAQLKQLVPNYQIGIVIGGGNIMRGKSCSDYNITEIAGHHLGIMATVINGAFLKAKFDSHKLNSTLLSAVSCPSLATHIVSQATIDDAFKNHDIVIFAGGTGNPYFSTDTAVALRATQMQADIILIGKNGVDGVYTADPKKDKHAKFLASLTYAEAIKNDLQIMDITAFTMCKENNLKVIIFNINAEHAIIKALSKQGKYTLIEKEGHHHHHH | soluble
8 | MSLRLKVSFQAMESTVPLNYNYFLSSFIYKRLASQNENFARFLHEKGYGKRFKFFTFSQLFFENSRVSGERIFIFPGKGWWYISSPVVEFVRYMFSSLSEDPVIRVGKTEFIVKSIDIENSLPDQSEYHFVMLSPLVVSVPEENNGKLYHRYLHPGEEEFYEVFRKNLMKKYRAFYGKDPEGTVEVIPDWDYIKSRHRITKRIKLKNAFVRAVVFPFKIRGEKKLVEIGYEAGFGEKNSMGFGMVALKKYEREGHHHHHH | soluble
9 | MSLRNQSKMPLVERLDAHAKSCPISLHVPGHKSGAIYPDAWQKLLKWDVTEITGMDDLHHPEDVILEAEELLAECYGSKKSYFLVNGTSGGNVAVIMATLKRGEKVLVPRDAHKSILHGIELAGGEPIFLTPATNKEVGVASGVTTELLEETLHNHPDVKLCIFTYPSYYGTTFNLQKCIRIAHDFGAVVFVDEAHGAHFLTSSEFPKSAVELGADVVVQSAHKTLPALTMGSYLHVVNDLPIFEKLAYYLQVFQTSSPSYLIMASLDAARKYVATYTAADVEAFWKMRARWIKWLTKNKFEVILPDDPLKIIVRKTGYTGYELQAIFEESSYFPELADESQVLLILPLIKKGIDFTPISRIHSPMKKEIAKEPYEMSTPCASGLALTYEEMHARATEFVLLDEATTRVSAETISLYPPGIPAIIRGEGITEKHIRELKNIRTRHYQGGEKLAENYIRVFREGHHHHHH | soluble
10 | MSLRPSLDAWTKMECVMVKIKTSDGLEGWGEAFGHVMAPGTEAVINQILAPMLVGKDSVAINHRVAEMERPLHGLGRSGPVMYGLSAIDTALWDLAAQRANLPLFKFLGGDSGVLTKYASLMRYGGDTDAVAQNVERARSYGFRTIKLHETTIPAFRAARNAVDFDDKICLDVNCPWTVSEARDVAQEILEDGFHWLEEPIWPPEDFEGLAEVRLEGVPISAGENITTLHEFKLALETEAVDNLQPSVTKCGGVSMMRKIFSLSEVYPVTVIPHCFYWGPGYHATAHLAASCLNSTPLETAFITFAVEPHNLFNSHSDKVTLDDTPGLGFNANWEALDQFIISTNEVTEGHHHHHH | soluble
11 | MSLRPTIYDVAKAAGVSKSLVSLVLRGSPNVSKESEAAVKTAIKKLNYQPNRAASDLAAKRTQLIAVLIDDYSNPWFIDLIQSLSDVLTPKGYRLSVIDSLTSQAGTDPITSALSMRPDGIIIAQDIPDFTVPDSLPPFVIAGTRITQASTHDSVANDDFRGAEIATKHLIDLGHTHIAHLRVGSGAGLRRFESFEATMRAHGLEPLSNDYLGPAVEHAGYTETLALLKEHPEVTAIFSSNDITAIGALGAARELGLRVPEDLSIIGYDNTPLAQTRLINLTTIDDNSIGVGYNAALLLLSMLDPEAPHPEIMHTLQPSLIERGTCAPREGHHHHHH | soluble
12 | MSLRPVPSGQDPIKVVHYSDIHVDQLYTEGSNAKCNKPICCRQVKIIRHTHKSWTDFSRPFTENDEPGKTDSPAGPFGEHTCDSPVSLEHSMYQAIKEIVPDASFTIFTGDVVDHSIWNTTWDYNKHQIIESYENMDKHLGIVYGTAGNHESHPTNAYQPSSIGGASSWIYDLLAGAWSRWIGHEAASKAAQIGAYSTKFPHGNLRVISLNTNLYYRGNFWLFQRKMIRDPSKQFDWLIEELHAAEKAGERVYIIGHMPPGDRNAFHDQSNYLNQIVNRYSSTIAAMFFGHTHRDHFQITYSEAPKKSFSNALLTSYVGPSLTPTSGMPSFRVYDVDPITFAVLDATTYSADMNSPTYQTQGPVWKKYYSAKETYGEGHHHHHH | not soluble
13 | MSLRTTESEKGLRMPGLPPMVAPPAEQVDDPVTATDAANAVDAVLRGVLDERLRHCRAVDPLFARELADRLAALTARGGKRLRTAFAHCGWRAAGGSGDATAVLRTGAALELLQACALVHDDVMDGSVQRRGAPALHVDLARGHWAAGMHGSSESFGTSAAVLTGDLALAWADDLLTETALGTPHGPRLHGEWRAMRTEMVAGQYRDLHAQAARSSGVDEALAIATLKSALYTVARPLALGAVLAGAADGDALEALRAAGRCAGLAFQLRDDLLGAFGDPALTGKPADDDLRSRKLTYLLAVAVRLADAADDHLAAAALAPDADPKSEKAVRQVRSALVRTGARDLVETKIGELTDMSLAHFDRCGARPAVRHEFAALIGRATGAVPRGTGEVVEGHHHHHH | soluble
14 | MSLSAFFAHLHLHSEFSLQDGLIRVKPLMQAVAQAGMPAVALTDQGNLFGAVKFYRAAVNAGVKPIIGAEIRVADADASERPARLVLLCADTQGYRTLTRLLTRGYLEGQQQGVPVVDREWLRGRCAGLIGLSGGRVGDVGRALLSGEPALAARKLEFWREQFGDRYYLELQRTGRPGDEEHVQAAVELATAHGVAVVATNDVCFLRPEDEGHHHHHH | not soluble
15 | MSLSAYSQVSIDKTMFVEGREFLHIDQAGWVAKESTSEEDNRMSKVQEMLSEKYQKDSFSIYVKQLTTGKEAGINQDEKMYAASVLKLSYLYYTQEKINEGLYQLDTTVKYVSAVNDFPGSYKPEGSGSLPKKEDNKEYSLKDLITKVSKESDNVAHNLLGYYISNQSDATFKSKMSAIMGDDWDPKEKLISSKMAGKFMEAIYNQNGFVLESLTKTDFDSQRIAKGVSVKVAHKIGDADEFKHDTGVVYADSPFILSIFTKNSDYDTISKIAKDVYEVLKEGHHHHHH | soluble
16 | MSLSDDSMIDAPLTRADAVSEKIVFQDDFNQVDSIPDRNKWSLCKKGSPAWSKYLSESYDQAYVHDGKLVLVAEKVNGVYKTGGVQSLGKAEFQYGKIEICARFTKTAKGGWPAIWMMPAKPVYSGWPACGEIDIMEQLNHDGIVYQTIHSHYKNDLGFTKPVPTKTVSYNKGQFNIFGIEWTPEALTFKVNGATTLVYPNLHLADESVKKQWPFDTSFYLILNYALGGPGTWPGTIMDSELPAKMEIDWVKVSQPRGREGHHHHHH | soluble
17 | MSLSDSENGGSKTAILCNDLADSYLESYPTVTLEDGVTRTYHNGVYQECRNKYIINNRMMDIAEDMGIVLTPKQIQDALEIVRNKTPFTESKTPINLIPVGNGVLDINTMELSDYSPETVLLTKFPRDYNPSAATPSKFMEMLNTTFDGSEEQIKLVQEMFGYCFLRSYFLEVIFFLIGNGRNGKTTLLSILGALLGGEESGHISSLSFKDLSEPKNENMLCDLYGRYANICGDTGKHKIKETDYIKKVTGNDFVRARKLYKDSFNFKSFAKVILAFNQLPEVDDFSDGFKRRIRIIEFNHKFEDGAGANKNIEAEITGDEEEMEGIFLWAMEGLKRILENNSFSDKRSIVSRGMEYARKSNPMHYFVRECIVESPGHFVNKADLIEKYVEYAEYNKMPQLTPQAFKKGLIAECTDISINTFEKRDQTKTGRPFGFMHIDIDLESWKKHTGKADNASPVEPKEDSKQTQFKELEIQIATTDEEIRKVAEDMASTASEGHHHHHH | soluble
